In the RNAGym collection of RNA variant scans (doi:10.1093/nar/gkz1192) one finds self-cleavage data, which are given here for 34 variants.

B1: CPEB3 Ribozyme (parent)
chain: UAACAGGGGGCCACAGCAGAAGCGUUCACGUCGCAGCCCCUGUCAGAUUCUGGUGAAUCUGCGAAUUCUGCUGUAUAUCUC

The series covers variants of B1. As to the kind of experiment: self-cleavage, relative activity (ratio to wild type); higher = more cleavage; in vitro, sequencing. Summed up: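 Barcoded CPEB3 ribozyme mutants, produced by rounds of error-prone PCR, self-cleaved while being transcribed with T7 RNA polymerase for 5 hours at 37°C and during a subsequent 15 min DNase I step before EDTA was added. Sequencing of template-switched cDNA on Illumina gave cleaved and total reads, and DNA sequencing assigned barcodes to variants. Each variant's relative activity is its cleaved/total read fraction divided by the unmutated ribozyme's fraction, averaged across three batches. A variant needed a minimum of 5 reads.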
Regarding UAACAGGGGGCCACAGCAGAAGCGUUCACGUCGCAGCCCCCGUCAGAUACUGGUGAAUCUGCGAAUUCUGCUGUAUAUCUC [U41C U49A], the self-cleavage was determined as 0.89.

UAACAGGGGGCCACAGCAGAAGCGUUCACGUCGCAGCCCCCGUCAGAUCCUGGUGAAUCUGCGAAUUCUGCUGUAUAUCUC [U41C U49C]: the self-cleavage is 0.5.

As to UAACAGGGGGCCACAGCAGAAGCGUUCACGUCGCAGCCCCCGUCAUAUUCUGGUGAAUCUGCGAAUUCUGCUGUAUAUCUC [U41C G46U], the self-cleavage was 0.34.

With UAACAGGGGGCCACAGCAGAAGCGUUCACGUCGCAGCCCCCGUCACAUUCUGGUGAAUCUGCGAAUUCUGCUGUAUAUCUC [U41C G46C], the self-cleavage worked out at 0.42.

Regarding UAACAGGGGGCCACAGCAGAAGCGUUCACGUCGCAGCCCCCGUCAGAUUCUGGAGAAUCUGCGAAUUCUGCUGUAUAUCUC [U41C U54A], the self-cleavage was determined as 1.11.

With UAACAGGGGGCCACAGCAGAAGCGUUCACGUCGCAGCCCCCGUCAGAUUCUGGGGAAUCUGCGAAUUCUGCUGUAUAUCUC [U41C U54G], the self-cleavage was 0.88.

On to UAACAGGGGGCCACAGCAGAAGCGUUCACGUCGCAGCCCCCGUCAGAUUCUGGCGAAUCUGCGAAUUCUGCUGUAUAUCUC [U41C U54C], for which the self-cleavage came to 1.03.

Take UAACAGGGGGCCACAGCAGAAGCGUUCACGUCGCAGCCCCCGUCAGAUUCUGGUGAAUCGGCGAAUUCUGCUGUAUAUCUC [U41C U60G]: the self-cleavage stood at 0.42.

As for UAACAGGGGGCCACAGCAGAAGCGUUCACGUCGCAGCCCCCGUCAGAUUCUGGUGAAUCCGCGAAUUCUGCUGUAUAUCUC [U41C U60C], the self-cleavage stood at 0.55.

UAACAGGGGGCCACAGCAGAAGCGUUCACGUCGCAGCCCCCGUCAGAUUCUGGUGAAUCAGCGAAUUCUGCUGUAUAUCUC [U41C U60A]: the self-cleavage came to 0.68.

Consider UAACAGGGGGCCACAGCAGAAGCGUUCACGUCGCAGCCCCCGUCAGAUUCUGGUAAAUCUGCGAAUUCUGCUGUAUAUCUC [U41C G55A], for which the self-cleavage turned out to be 0.93.

Take UAACAGGGGGCCACAGCAGAAGCGUUCACGUCGCAGCCCCCGUCAGAUUCUGGUUAAUCUGCGAAUUCUGCUGUAUAUCUC [U41C G55U]: the self-cleavage came out at 1.17.

As to UAACAGGGGGCCACAGCAGAAGCGUUCACGUCGCAGCCCCCGUCAGAUUCUGGUGAAUCUGCGAAUUUUGCUGUAUAUCUC [U41C C68U], the self-cleavage came to 1.09.

Take UAACAGGGGGCCACAGCAGAAGCGUUCACGUCGCAGCCCCCGUCAGAUUCUGGUGAAUCUGCGAAUUGUGCUGUAUAUCUC [U41C C68G]: the self-cleavage was found to be 0.39.

Take UAACAGGGGGCCACAGCAGAAGCGUUCACGUCGCAGCCCCCGUCAGAUUCUGGUGAAUCUGCGAAUUCUGGUGUAUAUCUC [U41C C71G]: the self-cleavage stood at 0.4.

Take UAACAGGGGGCCACAGCAGAAGCGUUCACGUCGCAGCCCCCGUCAGAUUCUGGUGAAUCUGCGAAUUCUGUUGUAUAUCUC [U41C C71U]: the self-cleavage was 0.76.

In the case of UAACAGGGGGCCACAGCAGAAGCGUUCACGUCGCAGCCCCCGUCAGAUUCUGGUGAAUCUGCGAAUUCUGAUGUAUAUCUC [U41C C71A], the self-cleavage worked out at 0.33.

Turning to UAACAGGGGGCCACAGCAGAAGCGUUCACGUCGCAGCCCCCGUCAGAUUCUGGUGAAUCUUCGAAUUCUGCUGUAUAUCUC [U41C G61U], the self-cleavage amounted to 0.62.

UAACAGGGGGCCACAGCAGAAGCGUUCACGUCGCAGCCCCCGUCAGAUUCUGGUGAAUCUACGAAUUCUGCUGUAUAUCUC [U41C G61A]: the self-cleavage came out at 0.34.

Take UAACAGGGGGCCACAGCAGAAGCGUUCACGUCGCAGCCCCCGUCAGAUUCUGGUGAAUCUCCGAAUUCUGCUGUAUAUCUC [U41C G61C]: the self-cleavage worked out at 0.21.

In the case of UAACAGGGGGCCACAGCAGAAGCGUUCACGUCGCAGCCCCCGUCAGAUUCUGGUGAAUCUGAGAAUUCUGCUGUAUAUCUC [U41C C62A], the self-cleavage worked out at 0.19.

Take UAACAGGGGGCCACAGCAGAAGCGUUCACGUCGCAGCCCCCGUCAGAUUCUGGUGAAUCUGUGAAUUCUGCUGUAUAUCUC [U41C C62U]: the self-cleavage amounted to 0.17.

In the case of UAACAGGGGGCCACAGCAGAAGCGUUCACGUCGCAGCCCCCGUCAGAUUCUGGUGAAUCUGGGAAUUCUGCUGUAUAUCUC [U41C C62G], the self-cleavage is 0.15.

For the variant UAACAGGGGGCCACAGCAGAAGCGUUCACGUCGCAGCCCCCGUCAGAUUCUGGUGAAUCUGCGAAUUCUGCUGUAUAUCUA [U41C C81A], the self-cleavage was determined as 1.19.

As for UAACAGGGGGCCACAGCAGAAGCGUUCACGUCGCAGCCCCCGUCAGAUUCUGGUGAAUCUGCGAAUUCUGCUGUAUAUCUU [U41C C81U], the self-cleavage is 1.19.

With UAACAGGGGGCCACAGCAGAAGCGUUCACGUCGCAGCCCCCGUCAGAUUCUGGUGAAUCUGCGAACUCUGCUGUAUAUCUC [U41C U66C], the self-cleavage is 0.49.

Turning to UAACAGGGGGCCACAGCAGAAGCGUUCACGUCGCAGCCCCCGUCAGAUUCUGGUGAAUCUGCGAAGUCUGCUGUAUAUCUC [U41C U66G], the self-cleavage came to 0.58.

With UAACAGGGGGCCACAGCAGAAGCGUUCACGUCGCAGCCCCCGUCAGAUUCUGGUGAAUCUGCGAAAUCUGCUGUAUAUCUC [U41C U66A], the self-cleavage came out at 0.62.

Take UAACAGGGGGCCACAGCAGAAGCGUUCACGUCGCAGCCCCCAUCAGAUUCUGGUGAAUCUGCGAAUUCUGCUGUAUAUCUC [U41C G42A]: the self-cleavage amounted to 0.23.

In the case of UAACAGGGGGCCACAGCAGAAGCGUUCACGUCGCAGCCCCCCUCAGAUUCUGGUGAAUCUGCGAAUUCUGCUGUAUAUCUC [U41C G42C], the self-cleavage is 0.23.

Consider UAACAGGGGGCCACAGCAGAAGCGUUCACGUCGCAGCCCCCGUCAGAUUCUGGUGAAUCUGCGAAUUCUGCUGAAUAUCUC [U41C U74A], for which the self-cleavage is 1.22.

On to UAACAGGGGGCCACAGCAGAAGCGUUCACGUCGCAGCCCCCGUCAGAUUCUGGUGAAUCUGCUAAUUCUGCUGUAUAUCUC [U41C G63U], for which the self-cleavage was found to be 1.13.

For the variant UAACAGGGGGCCACAGCAGAAGCGUUCACGUCGCAGCCCCCGUCAGAUUCUGGUGAAUCUGCCAAUUCUGCUGUAUAUCUC [U41C G63C], the self-cleavage came to 1.06.

On to UAACAGGGGGCCACAGCAGAAGCGUUCACGUCGCAGCCCCCGUCAGAUUCUGGUGAAUCUGCAAAUUCUGCUGUAUAUCUC [U41C G63A], for which the self-cleavage came out at 0.89.
